Experimental data published in the Human Domainome abundance scans (Beltran et al. 2025).
± gives the uncertainty stated by the source.

B1: CD2-associated protein, residues 271 to 331; numbered along this chain, Q9Y5K6 (parent)
chain: KEYCRTLFAYEGTNEDELTFKEGEIIHLISKETGEAGWWRGELNGKEGVFPDNFAVQINEL

Variants of: B1
Experiment: abundance fitness (aPCA) (normalised: wild type 0, dead -1); higher = more abundant; growth selection in yeast, the domain comes from the species named
Details: Homo sapiens

Variant | abundance fitness
C4S | -0.791 ± 0.095
C4Q | -0.9 ± 0.25
C4E | -1.09 ± 0.24
C4T | -0.714 ± 0.12
C4W | -0.301 ± 0.068
C4H | -1.07 ± 0.3
C4K | -0.64 ± 0.15
C4R | -0.62 ± 0.083
C4V | -0.354 ± 0.066
C4F | -0.007 ± 0.11
C4L | -0.046 ± 0.064
T6A | -0.014 ± 0.091
T6H | -0.695 ± 0.21
T6E | -0.698 ± 0.25
T6M | -0.474 ± 0.22
T6P | -0.605 ± 0.24
T6L | -0.88 ± 0.12
T6I | -0.5 ± 0.3
T6D | -0.963 ± 0.45
T6C | -0.614 ± 0.14
T6K | -0.607 ± 0.13

Variant | abundance fitness
T6Q | -0.68 ± 0.14
T6W | -1.15 ± 0.24
T6Y | -0.621 ± 0.12
T6R | -0.682 ± 0.1
T6F | -0.889 ± 0.22
T6S | -0.103 ± 0.055
T6G | -0.528 ± 0.11
T6V | -0.844 ± 0.19
T6N | -0.926 ± 0.29
F8G | 0.028 ± 0.059
F8D | -0.311 ± 0.13
F8A | 0.014 ± 0.056
L7H | -0.674 ± 0.14
L7R | -0.276 ± 0.061
L7C | -0.336 ± 0.098
L7V | -0.088 ± 0.07
L7D | -0.426 ± 0.14
L7A | -0.275 ± 0.059
L7W | -0.539 ± 0.098
L7M | -0.113 ± 0.077
L7E | -0.457 ± 0.1

Variant | abundance fitness
L7K | -0.174 ± 0.056
L7S | -0.107 ± 0.056
L7I | -0.021 ± 0.1
L7F | -0.741 ± 0.15
L7P | -1.01 ± 0.15
L7G | -0.57 ± 0.11
L7T | -0.017 ± 0.057
L7Y | -0.762 ± 0.15
E2D | 0.039 ± 0.12
E2M | 0.073 ± 0.15
E2W | -0.525 ± 0.14
E2K | -0.084 ± 0.13
E2H | 0.049 ± 0.16
E2F | -0.351 ± 0.18
E2Q | -0.05 ± 0.22
E2A | -0.022 ± 0.068
E2V | -0.222 ± 0.064
E2N | 0.002 ± 0.12
E2P | -0.306 ± 0.13
E2T | -0.121 ± 0.083
E2R | -0.245 ± 0.063

Variant | abundance fitness
E2L | -0.136 ± 0.074
E2S | -0.128 ± 0.067
E2G | -0.078 ± 0.057
K1R | -0.277 ± 0.074
K1A | -0.529 ± 0.097
K1D | -0.364 ± 0.088
K1C | -0.629 ± 0.14
K1W | -0.543 ± 0.11
K1F | -0.337 ± 0.21
K1L | -0.296 ± 0.061
K1V | -0.332 ± 0.088
K1I | -0.245 ± 0.12
K1E | -0.083 ± 0.083
K1Y | -0.656 ± 0.13
K1S | -0.229 ± 0.091
K1G | -0.223 ± 0.056
K1N | -0.384 ± 0.098
K1H | -0.489 ± 0.32
K1T | -0.394 ± 0.079
K1M | -0.154 ± 0.081
K1Q | -0.343 ± 0.1
